The record followed here is patent US20240417707.

What all share (assay): cell_activity
The subject of data set [1] is Nme2-ABE8e-i1 (Neisseria meningitidis).
For data set [2], the system named is Nme2-ABE8e-nt (Neisseria meningitidis).
Data set [3] deals with Nme2-ABE8e-i1 V106W V106W (in TadA8e) (Neisseria meningitidis).
[4] abbreviates: A6 editing, mouse liver in vivo, N4CC PAM.
Setting [5] is: up to, off-target A-to-G, mouse liver.

On to Rosa26 sgRNA ; Rosa26 target, for which the activity amounted to 49% in data set [1] (setting [4]), 34% in data set [2] (setting [4]) and 46% in data set [3] (setting [4]).
Regarding Rosa26 sgRNA ; Rosa26-OT1 off-target, the activity in data set [1] (setting [5]) stood at 7%; in data set [2] (off-target A-to-G, mouse liver), 0.2%; in data set [3] (setting [5]), 5%.
